Source: IntAct's records for PubMed 23260139

Target: vinc_mouse Vcl (UniProt Q64727)
Sequence (Q64727 whole entry): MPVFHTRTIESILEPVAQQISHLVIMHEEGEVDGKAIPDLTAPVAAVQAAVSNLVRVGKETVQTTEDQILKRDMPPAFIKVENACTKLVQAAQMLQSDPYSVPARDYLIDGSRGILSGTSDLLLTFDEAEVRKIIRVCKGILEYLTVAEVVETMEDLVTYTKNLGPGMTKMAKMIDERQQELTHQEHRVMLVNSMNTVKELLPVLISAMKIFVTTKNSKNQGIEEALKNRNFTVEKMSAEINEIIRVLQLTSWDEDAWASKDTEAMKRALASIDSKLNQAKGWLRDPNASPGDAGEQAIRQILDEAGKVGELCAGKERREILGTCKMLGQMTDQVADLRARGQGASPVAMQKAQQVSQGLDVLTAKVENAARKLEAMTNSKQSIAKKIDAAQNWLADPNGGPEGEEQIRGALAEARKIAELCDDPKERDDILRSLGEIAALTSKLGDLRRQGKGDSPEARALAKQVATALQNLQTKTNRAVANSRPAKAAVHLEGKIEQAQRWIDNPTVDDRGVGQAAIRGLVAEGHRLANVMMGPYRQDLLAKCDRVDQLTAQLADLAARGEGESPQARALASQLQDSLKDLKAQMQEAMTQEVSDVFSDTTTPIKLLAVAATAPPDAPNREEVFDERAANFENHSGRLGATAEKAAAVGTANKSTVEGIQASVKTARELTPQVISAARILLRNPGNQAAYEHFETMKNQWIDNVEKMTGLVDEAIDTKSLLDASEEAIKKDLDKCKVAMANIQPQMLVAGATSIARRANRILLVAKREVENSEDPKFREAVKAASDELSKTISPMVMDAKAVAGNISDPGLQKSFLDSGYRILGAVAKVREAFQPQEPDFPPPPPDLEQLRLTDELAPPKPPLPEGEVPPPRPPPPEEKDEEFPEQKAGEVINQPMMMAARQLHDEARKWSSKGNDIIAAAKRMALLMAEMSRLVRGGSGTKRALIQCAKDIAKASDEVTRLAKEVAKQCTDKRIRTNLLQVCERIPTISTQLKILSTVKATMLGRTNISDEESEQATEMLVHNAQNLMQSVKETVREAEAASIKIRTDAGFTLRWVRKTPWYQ

Chain of Paxillin (Gallus gallus (Chicken)), P49024 E151Q (P49024 whole entry E151Q): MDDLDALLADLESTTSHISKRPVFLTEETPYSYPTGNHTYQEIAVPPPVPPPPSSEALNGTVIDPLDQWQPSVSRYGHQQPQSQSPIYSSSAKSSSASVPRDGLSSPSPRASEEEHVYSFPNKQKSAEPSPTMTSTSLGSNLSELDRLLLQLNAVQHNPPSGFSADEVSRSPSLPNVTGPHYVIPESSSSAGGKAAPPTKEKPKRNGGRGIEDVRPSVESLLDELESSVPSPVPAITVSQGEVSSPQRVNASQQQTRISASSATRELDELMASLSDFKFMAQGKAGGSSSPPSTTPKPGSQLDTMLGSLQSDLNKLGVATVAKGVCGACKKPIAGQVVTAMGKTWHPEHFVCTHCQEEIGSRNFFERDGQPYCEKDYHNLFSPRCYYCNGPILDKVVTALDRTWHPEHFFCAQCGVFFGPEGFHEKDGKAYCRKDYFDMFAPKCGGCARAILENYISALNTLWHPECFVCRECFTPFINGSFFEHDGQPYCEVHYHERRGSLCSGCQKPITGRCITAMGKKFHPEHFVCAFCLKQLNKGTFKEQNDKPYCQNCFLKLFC

Substance: Paxillin (Gallus gallus (Chicken)), P49024 E151Q
- effect of a mutation on the interaction: decreasing interaction strength
